In this series the test system is ScbR2. In words: EMSA. The settings on record: 'nearly 1 uM'; exact value in figure; not stated; modified EMSA as previously described (ref 23).

Usually Kd stands for the concentration at which binding is half-saturated.

On to PkasO1, for which the Kd was determined as 1000 nM.
